According to CN107011436A:
“And” between values parts separate entries of the source, which are not always exact repeats. Equal entries are not always repeated. Where two headings read alike, the source gives them in different places.

Experiments:
纯化的H7N9病毒HA蛋白 (H7N9病毒) [1] = test: ELISA, HA-coated plate, expression supernatant diluted 1:80, anti-human Fc-HRP
纯化的H7N9病毒HA蛋白 (H7N9病毒) [2] = test: ELISA, HA-coated plate, expression supernatant diluted 1:160, anti-human Fc-HRP
纯化的H7N9病毒HA蛋白 (H7N9病毒) [3] = test: ELISA, HA-coated plate, expression supernatant diluted 1:320, anti-human Fc-HRP
纯化的H7N9病毒HA蛋白 (H7N9病毒) [4] = test: ELISA, HA-coated plate, expression supernatant diluted 1:640, anti-human Fc-HRP
纯化的H7N9病毒HA蛋白 (H7N9病毒) [5] = test: ELISA, HA-coated plate, expression supernatant diluted 1:40, anti-human Fc-HRP
[6] = biological target: H7N9病毒Suzhou-03病毒株的HA蛋白 (H7N9病毒); test: cell-based or functional assay
[7] = biological target: H7N9病毒Wuxi-01病毒株的HA蛋白 (H7N9病毒); test: cell-based or functional assay
[8] = biological target: H7N9病毒Nanjing-06病毒株的HA蛋白 (H7N9病毒); test: cell-based or functional assay
[9] = biological target: H7N9病毒Wuxi-02病毒株的HA蛋白 (H7N9病毒); test: cell-based or functional assay
纯化的H7N9病毒HA蛋白 (H7N9病毒) [10] = biological target: 纯化的H7N9病毒HA蛋白 (H7N9病毒)
纯化的H7N9病毒HA蛋白 (H7N9病毒) [11] = test: ELISA, HA-coated plate, expression supernatant diluted 1:20, anti-human Fc-HRP

B1: 抗H7N9病毒的单克隆抗体mAb6137 (antibody, V domains shown)
VH: EVQLVESGGGLVQPGRSLRLSCAASGFIFDDYAMHWVRQAPGKGLEWVSGISWNNNNRAYADSVKGRFTISRDSAKNSLYLQMNSLRAEDTALYYCAKDILSLNMVRGGDEYYGIDVWGQGTTVTVSS
VL: DIQLTQSPSSLSASVGDRVTITCQASQDINNYLNWYQQKPGKAPKLLIFDASNLETGVPSRFSGSGSGTDFTFTISSLQPEDIATYYCQQYGSLLTFGGGTKVDIKR
纯化的H7N9病毒HA蛋白 (H7N9病毒) [1]
  OD450: 1.37 OD450
纯化的H7N9病毒HA蛋白 (H7N9病毒) [2]
  OD450: 0.971 OD450
纯化的H7N9病毒HA蛋白 (H7N9病毒) [3]
  OD450: 0.584 OD450
纯化的H7N9病毒HA蛋白 (H7N9病毒) [4]
  OD450: 0.35 OD450
纯化的H7N9病毒HA蛋白 (H7N9病毒) [5]
  OD450: 1.91 OD450
[6]
  中和100×TCID50病毒需要的抗体质量: 40 ng
[7]
  中和100×TCID50病毒需要的抗体质量: 40 ng
[8]
  中和100×TCID50病毒需要的抗体质量: 20 ng
[9]
  中和100×TCID50病毒需要的抗体质量: 80 ng
纯化的H7N9病毒HA蛋白 (H7N9病毒) [10]
  OD450: 0.211 OD450 and 0.153 OD450
纯化的H7N9病毒HA蛋白 (H7N9病毒) [11]
  OD450: 2.06 OD450
